Data: patent publication US20150056222A1 (Regeneron, published 2015)

T1: hPRLR.mmh (soluble monomeric human PRLR) (human)
T1 construct: soluble monomeric construct
T1 chain: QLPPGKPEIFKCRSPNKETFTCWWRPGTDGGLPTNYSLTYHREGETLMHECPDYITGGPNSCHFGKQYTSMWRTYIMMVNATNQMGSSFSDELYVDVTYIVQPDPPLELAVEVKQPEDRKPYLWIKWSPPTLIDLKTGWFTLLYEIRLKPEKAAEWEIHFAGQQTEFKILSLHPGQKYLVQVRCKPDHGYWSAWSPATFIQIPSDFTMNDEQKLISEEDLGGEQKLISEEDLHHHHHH

T2: hPRLR.mFc (soluble dimeric human PRLR) (human)
T2 construct: dimeric construct
T2 chain: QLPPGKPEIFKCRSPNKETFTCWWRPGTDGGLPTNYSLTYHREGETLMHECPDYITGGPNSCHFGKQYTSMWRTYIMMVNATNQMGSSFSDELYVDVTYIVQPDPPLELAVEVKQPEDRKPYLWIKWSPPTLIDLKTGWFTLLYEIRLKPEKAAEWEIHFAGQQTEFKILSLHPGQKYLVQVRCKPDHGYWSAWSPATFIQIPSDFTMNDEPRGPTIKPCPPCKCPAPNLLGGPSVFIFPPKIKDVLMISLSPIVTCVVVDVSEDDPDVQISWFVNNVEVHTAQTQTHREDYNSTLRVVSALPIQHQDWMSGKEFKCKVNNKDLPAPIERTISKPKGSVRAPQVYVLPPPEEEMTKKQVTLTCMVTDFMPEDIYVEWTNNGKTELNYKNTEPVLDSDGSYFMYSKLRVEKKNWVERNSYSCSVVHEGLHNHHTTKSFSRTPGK

T3: mfPRLR.mmh (soluble monomeric macaca fascicularis PRLR) (macaca fascicularis)
T3 construct: soluble monomeric construct; also called macaca fascicularis (mf) PRLR.mmh
T3 chain: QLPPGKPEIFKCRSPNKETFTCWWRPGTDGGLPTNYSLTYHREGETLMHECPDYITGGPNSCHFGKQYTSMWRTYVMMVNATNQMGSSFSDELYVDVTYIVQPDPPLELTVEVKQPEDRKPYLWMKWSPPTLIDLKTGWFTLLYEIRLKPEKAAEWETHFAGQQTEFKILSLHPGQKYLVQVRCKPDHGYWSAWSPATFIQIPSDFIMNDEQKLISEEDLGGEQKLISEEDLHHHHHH

T4: human prolactin receptor (PRLR) on cells (human, UniProt P16471 25-622)
T4 sequence: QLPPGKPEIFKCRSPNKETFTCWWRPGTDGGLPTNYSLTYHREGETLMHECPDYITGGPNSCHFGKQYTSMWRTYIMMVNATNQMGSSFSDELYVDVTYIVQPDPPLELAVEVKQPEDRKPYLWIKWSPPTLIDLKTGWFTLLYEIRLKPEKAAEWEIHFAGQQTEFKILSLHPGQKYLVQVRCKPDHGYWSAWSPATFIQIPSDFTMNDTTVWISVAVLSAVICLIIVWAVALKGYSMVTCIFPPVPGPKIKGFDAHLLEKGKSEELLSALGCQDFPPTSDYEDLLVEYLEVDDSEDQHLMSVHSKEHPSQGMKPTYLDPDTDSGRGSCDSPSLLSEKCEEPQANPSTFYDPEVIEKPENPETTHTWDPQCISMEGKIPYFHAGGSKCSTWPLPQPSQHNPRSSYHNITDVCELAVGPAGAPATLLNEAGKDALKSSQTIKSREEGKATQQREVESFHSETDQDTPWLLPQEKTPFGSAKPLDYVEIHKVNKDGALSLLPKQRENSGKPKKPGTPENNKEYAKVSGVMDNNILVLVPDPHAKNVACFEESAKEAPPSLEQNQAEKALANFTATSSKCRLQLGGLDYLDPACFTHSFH

T5: mouse PRLR on HEK293 cells (mouse, UniProt Q08501 20-608)
T5 construct: whole, on cells; also called mPRLR; HEK293/mPRLR
T5 sequence (looked up): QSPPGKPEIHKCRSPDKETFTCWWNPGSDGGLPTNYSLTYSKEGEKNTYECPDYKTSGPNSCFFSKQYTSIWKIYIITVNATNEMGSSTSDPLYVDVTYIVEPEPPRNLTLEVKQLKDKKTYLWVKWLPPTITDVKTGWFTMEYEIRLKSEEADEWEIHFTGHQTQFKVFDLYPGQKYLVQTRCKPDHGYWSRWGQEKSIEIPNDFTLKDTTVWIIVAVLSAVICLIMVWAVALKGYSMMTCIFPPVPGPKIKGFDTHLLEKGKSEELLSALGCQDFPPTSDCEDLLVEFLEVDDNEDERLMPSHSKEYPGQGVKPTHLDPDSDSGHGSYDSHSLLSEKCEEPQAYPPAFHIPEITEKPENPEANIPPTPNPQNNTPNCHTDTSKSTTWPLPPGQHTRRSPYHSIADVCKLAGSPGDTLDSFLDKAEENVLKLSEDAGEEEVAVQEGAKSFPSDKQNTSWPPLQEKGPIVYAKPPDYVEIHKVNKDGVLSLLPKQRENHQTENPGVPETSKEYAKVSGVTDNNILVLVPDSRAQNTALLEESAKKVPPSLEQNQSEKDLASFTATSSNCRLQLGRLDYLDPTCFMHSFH

T6: monkey (macaca fascicularis) PRLR on HEK293 cells (macaca fascicularis, UniProt A0A2K5WXK1 25-619)
T6 construct: also called mfPRLR; HEK293/mfPRLR
T6 sequence: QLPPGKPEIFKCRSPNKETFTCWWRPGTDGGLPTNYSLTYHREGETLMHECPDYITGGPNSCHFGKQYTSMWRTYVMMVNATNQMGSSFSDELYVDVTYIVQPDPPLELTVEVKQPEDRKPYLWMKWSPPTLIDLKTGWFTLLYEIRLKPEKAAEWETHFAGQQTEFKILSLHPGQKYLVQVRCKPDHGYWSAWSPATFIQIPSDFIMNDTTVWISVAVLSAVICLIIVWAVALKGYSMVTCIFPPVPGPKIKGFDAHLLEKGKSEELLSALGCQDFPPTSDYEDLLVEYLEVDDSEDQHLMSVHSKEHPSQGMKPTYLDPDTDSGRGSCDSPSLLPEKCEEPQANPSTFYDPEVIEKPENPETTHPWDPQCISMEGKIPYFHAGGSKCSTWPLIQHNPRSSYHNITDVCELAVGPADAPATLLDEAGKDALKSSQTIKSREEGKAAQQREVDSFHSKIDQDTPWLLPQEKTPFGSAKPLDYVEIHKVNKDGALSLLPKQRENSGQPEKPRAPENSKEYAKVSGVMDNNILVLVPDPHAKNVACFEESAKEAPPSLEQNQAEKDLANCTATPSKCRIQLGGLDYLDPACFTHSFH


Columns and labels:
[1] = biological target: T1, hPRLR.mmh (soluble monomeric human PRLR); test: SPR, 37C, mAb capture
Method: (§1) Measurements were conducted on a T200 Biacore instrument. Kinetic association (kₐ) and dissociation (kd) rate constants were determined by processing and fitting the data to a 1:1 binding model using Scrubber 2.0 curve fitting software. Binding dissociation equilibrium constants (KD) and dissociative half-lives (t_{1/2}) were calculated from the kinetic rate constants as: KD (M)=kd/kₐ; and […].

[2] = biological target: T2, hPRLR.mFc (soluble dimeric human PRLR); test: SPR, 37C, mAb capture
Method: as §1

[3] = biological target: T3, mfPRLR.mmh (soluble monomeric macaca …); test: SPR, 37C, mAb capture
Method: as §1

[4] = biological target: T4, human prolactin receptor (PRLR) on cells; test: cell-based or functional assay
[5] = biological target: T4, human prolactin receptor (PRLR) on cells; test: FACS, HEK293/hPRLR cells; also: test concentration or dose not given here
[6] = biological target: T5, mouse PRLR on HEK293 cells; test: FACS, HEK293/mPRLR cells; also: test concentration or dose not given here
[7] = biological target: T6, monkey (macaca fascicularis) PRLR on …; test: FACS, HEK293/mfPRLR cells; also: test concentration or dose not given here
[8] = biological target: T4, human prolactin receptor (PRLR) on cells; test: FACS, T47D cells (native PRLR); also: test concentration or dose not given here

Binder	T½ [1] [min]	T½ [2] [min]	T½ [3] [min]	% Internalization relative to Control I (alexa488 intensity in intracellular vesicles at 37 C, T47D cells) [4] [%]	FACS Cell Binding (Fold Above Background) [5] [fold above background]	FACS Cell Binding (Fold Above Background) [6] [fold above background]	FACS Cell Binding (Fold Above Background) [7] [fold above background]	FACS Cell Binding (Fold Above Background) [8] [fold above background]
H1H6785P (antibody, human IgG1, V domains shown, human IgG1 Fc (H1H)) VH: EVQLVESGGGLVQPGGSLRLSCAASGFTFSSYEMNWVRQAPGKGLEWISYISSRGGTIYYADSIKGRFTIYRDNARNSLYLQMNSLRAEDTAIYYCARLSGVDIFDIWGQGTMVTVSS VL: DIQMTQSPSSLSASVGDRVTITCRASQGISNYLAWYQQKPGKVPKLLIYFASTLQSGVPSRFSGGGSGTDFTLTISSLQPEDVATYYCQRYNSAPLTFGGGTKVEIK	24	99	26	169	37	2	26	40
H1H6782P (antibody, human IgG1, V domains shown, human IgG1 Fc (H1H)) VH: EVQLVESGGGLVQPGRSLRLSCAASGFTFDDYAMHWVRQAPGKGLEWVSGIIWNSGHIGYGDSVKGRFTISRDNAKKSLYLQMNSLRAEDTALYYCARDSGRYQSYFDYWGQGTLVTVSS VL: DIQMTQSPSTLSASVGDRVTITCRASHIISSWLAWYQQKPGKAPKVLIFKASSLESGVPSRFSGSGSGTEFTLTISSLQPDDFATYYCQQYNTYSRTFGQGTKVEIK	16	89	15	179	41	4	32	43
H1H6765P (antibody, human IgG1, V domains shown, human IgG1 Fc (H1H)) VH: EVQLVESGGGVVRPGGSLRLSCVGSGFSFDDHGMNWVRQGPGKGLEWVSGFNWNGGSTNYAESVKGRFTISRDNARNSLFLQMNSLRAEDTALYYCVRGRSGWFNDAFDVWGPGTMVTVSS VL: EIVLTQSPGTLSLSPGERATLSCRASQTINSNYLAWYRQKPGQTPRLLIYGTSSRATGIPDRFSGSGSGTDFSLTISRLEPEDFAVFYCQQYAGLPTFGPGTKVDIK	32	112	215	186	38	1	27	40

The remaining lines, values ahead:

T½ [1] [min]	T½ [2] [min]	T½ [3] [min]	% Internalization relative to Control I (alexa488 intensity in intracellular vesicles at 37 C, T47D cells) [4] [%]	FACS Cell Binding (Fold Above Background) [5] [fold above background]	FACS Cell Binding (Fold Above Background) [6] [fold above background]	FACS Cell Binding (Fold Above Background) [7] [fold above background]	FACS Cell Binding (Fold Above Background) [8] [fold above background]	Binder
3.7	82.6	3.7	170	8	1	29	37	H1H6976N (antibody, human IgG1, V domains shown, also called H2M6976N) VH: EVQLLESGGGFVQPGGSLRLSCAASGFTFSSYAMSWVRQAPGKGLEWVSIISSNGRYTYYADSVKGRFTISRDNSKNTLYLQMNSLRAEDTAVYYCATVTGDWFDPWGQGTLVTVSS VL: DIQLTQSPSFLSASVGDRVTITCWASQDIDISLAWYQQKPGKAPKLLIYAASTLQSGVPSKFSGSGSGTDFTLTISSLQPEDFSTYYCQQLNSYPITFGQGTRLDIK
11	81	11	180	2	2	32	43	H1H6793P (antibody, human IgG1, V domains shown, human IgG1 Fc (H1H)) VH: EVQLVESGGGLVQPGGSLRLSCAASGFSFSIYAMSWFRQAPGKGLEWVSAINGRGDGTHYADSVKGRFTISRDNSKTTLYLQMSSLRAEDTAVYYCAKPVMSTNGFDIWGQGTMVTVSS VL: DIQMTQSPSTLSASVGDRVTITCRASQSISSWLAWYQLKPGKAPKLLIYKASNLESGVPSRFSGSGSGTEFTLTISSLQPDDFATYYCQQYNIYWTFGQGTKVEIK
8.8	83.3	8.6	169	35	1	30	37	H1H6958N2 (antibody, human IgG1, V domains shown, also called H2M6958N2) VH: QVQLVESGGGVVQPGRSLRLSCGASGFTFRNYGMQWVRQGPGKGLEWVTLISFDGNDKYYADSVKGRFTISRDNSKNTLFLQMNSLRTEDTAVYYCARGGDFDYWGQGTLVTVSS VL: DIQMTQSPSSLSASVGDRVTITCRASQDIRKDLGWYQQKPGKAPKRLIYAASSLHSGVPSRFSGSGSGTEFTLTISSLQPEDFATYYCLQHNSYPMYTFGQGTKLEIK
